# Test results as given in doi:10.1101/2021.02.12.430940 (bioRxiv, 2021).
# B1: mAb-82 (antibody, V domains shown)
# VH: QVQLVQSGAEVKKPGSSVKVSCKASGGTFSSYAISWVRQAPGQGLEWMGGIIPIFGTANYAQKFQGRVTITADESTSTAYMELSSLRSEDTAVYYCARGNDDSSGYYSHYYYGMDVWGQGTTVTVSS
# VL: QTVVTQEPSFSVSPGGTVTLTCGLSSGSVSTSYYPSWYQQTPGQAPRTLIYSTNTRSSGVPDRFSGSILGNKAALTITGAQADDESDYYCVLYMGSGAVFGGGTQLTVL
# Biological target: SARS-CoV-2 RBD-mFc (SARS-CoV-2, reference (Wuhan-Hu-1) by …, UniProt P0DTC2)
# Assay: flow cytometry on cells
binder,measurement,value
B1,binding result,binds
